Results on three molecules are retold here after paper PMC5584168.

Assay [1] has as its target Taxol-stabilized microtubules polymerised from bovine tubulin (bovine) (UniProt Q6B856). The experiment in a line: wide-field fluorescence microscopy of labelled protein on microtubules; 1 µM TMR-labeled She1 construct preincubated with 60 nM Taxol-stabilized HiLyte 488–labeled MTs, room temperature, 20 min, MAP-binding buffer with 150 mM KCl and 20 µM Taxol; MTs held in a flow chamber by antitubulin antibody; bound TMR fluorescence on the MT measured.

Assay [2] has as its target T1, full-length She1 (She1-FL), HALO-tagged (S. cerevisiae), P38200.
T1 chain: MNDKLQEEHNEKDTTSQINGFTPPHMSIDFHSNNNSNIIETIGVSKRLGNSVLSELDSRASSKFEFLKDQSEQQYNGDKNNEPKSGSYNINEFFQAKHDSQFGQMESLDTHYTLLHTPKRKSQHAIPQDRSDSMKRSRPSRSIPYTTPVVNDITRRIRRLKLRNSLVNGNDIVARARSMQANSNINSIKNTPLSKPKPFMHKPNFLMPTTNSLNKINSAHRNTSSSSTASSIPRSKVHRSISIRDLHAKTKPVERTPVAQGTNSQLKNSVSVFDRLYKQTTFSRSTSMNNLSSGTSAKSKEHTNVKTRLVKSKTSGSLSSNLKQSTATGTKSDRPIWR
The experiment in a line: negative-stain EM; purified She1-FL at 4 µM on carbon-coated grids, 0.75% uranyl formate. As to conditions: remark: other sources report otherwise.

Assay [3] concerns the target Taxol-stabilized microtubules polymerised from bovine tubulin (bovine) (UniProt Q6B856). The experiment in a line: co-sedimentation; low-speed microfuge pelleting (15,871 g, 10 min, room temperature); 5 µM She1-C–TMR with varying concentrations of Taxol-stabilized MTs, MAP buffer with 50 mM KCl; quadratic fit, apparent dissociation constant; stoichiometry from the saturation point.

B1: full-length She1 (She1-FL), HALO-tagged (natural protein)
chain: MNDKLQEEHNEKDTTSQINGFTPPHMSIDFHSNNNSNIIETIGVSKRLGNSVLSELDSRASSKFEFLKDQSEQQYNGDKNNEPKSGSYNINEFFQAKHDSQFGQMESLDTHYTLLHTPKRKSQHAIPQDRSDSMKRSRPSRSIPYTTPVVNDITRRIRRLKLRNSLVNGNDIVARARSMQANSNINSIKNTPLSKPKPFMHKPNFLMPTTNSLNKINSAHRNTSSSSTASSIPRSKVHRSISIRDLHAKTKPVERTPVAQGTNSQLKNSVSVFDRLYKQTTFSRSTSMNNLSSGTSAKSKEHTNVKTRLVKSKTSGSLSSNLKQSTATGTKSDRPIWR
modifications: HaloTag TMR ligand (MT-binding and cross-linking assays) or HaloTag Alexa Fluor 488 ligand (ultracentrifugation) on the HALO tag
B1 displayed a mean TMR fluorescence on MTs in assay [1] of 22000 a.u.

B2: full-length She1 (She1-FL), HALO-tagged, P38200 1-338 (natural protein)
chain: MNDKLQEEHNEKDTTSQINGFTPPHMSIDFHSNNNSNIIETIGVSKRLGNSVLSELDSRASSKFEFLKDQSEQQYNGDKNNEPKSGSYNINEFFQAKHDSQFGQMESLDTHYTLLHTPKRKSQHAIPQDRSDSMKRSRPSRSIPYTTPVVNDITRRIRRLKLRNSLVNGNDIVARARSMQANSNINSIKNTPLSKPKPFMHKPNFLMPTTNSLNKINSAHRNTSSSSTASSIPRSKVHRSISIRDLHAKTKPVERTPVAQGTNSQLKNSVSVFDRLYKQTTFSRSTSMNNLSSGTSAKSKEHTNVKTRLVKSKTSGSLSSNLKQSTATGTKSDRPIWR
modifications: here or on the partner: HaloTag TMR ligand (MT-binding and cross-linking assays) or HaloTag Alexa Fluor 488 ligand (ultracentrifugation) on the HALO tag; HaloTag TMR ligand (MT-binding and cross-linking assays) or HaloTag Alexa Fluor 488 ligand (ultracentrifugation) on the HALO tag
With B2, in assay [2], the stoichiometry N – broadly, the number of molecules, sites or subunits per partner or assembly – turned out to be 6.

B3: She1-C, C-terminal 194–338 aa of She1, HALO-tagged (domain or fragment)
chain: SKPKPFMHKPNFLMPTTNSLNKINSAHRNTSSSSTASSIPRSKVHRSISIRDLHAKTKPVERTPVAQGTNSQLKNSVSVFDRLYKQTTFSRSTSMNNLSSGTSAKSKEHTNVKTRLVKSKTSGSLSSNLKQSTATGTKSDRPIWR
modifications: HaloTag TMR ligand on the HALO tag where labelled
Regarding B3, the stoichiometry N (She1-C–TMR per tubulin) in assay [3] is 1. Besides, in assay [1], the mean TMR fluorescence on MTs stood at 21000 a.u.
